Test results: patent publication US10000771B2, “Nuclear targeting sequences” (Yeda Research and Development Co. Ltd., priority 2007, dated 2018)

Legend:
[1] = test system: SPS domain; assay: SPS phosphorylation detected by anti pSPS Ab Western blot; format: cell-based; conditions: COS7 cells, stimulated with VOOH, TPA, EGF or TGFβ, immunoprecipitation and Western blot
Protocol: FIGS. 4A-4I are autoradiographs characterizing SPS phosphorylation using an Ab to the phosphorylated SPS domain. FIG. 4A illustrates an elevation of pSPS detection upon stimulation. COS cells were transfected with WT-GFP-ERK2. Twenty-four hr after transfection, the cells were serum-starved for 16 hr and subsequently treated with the general stimulator VOOH (V, 100 μM Na3VO4 and 200 μM H2O2, 15 min), TPA (T, 250 nM, 15 min), EGF (E, 50 ng/ml for 15 min), or left untreated (NT). The GFP-ERK2 was immunoprecipitated with anti GFP Ab, extensively washed, and the IP was then subjected to Western blotting with anti phospho SPS-ERK (αphoSPS-ERK) and anti general ERK (αgen-ERK) Abs. FIG. 4B is a time course of SPS phosphorylation. COS7 cells overexpressing WT-GFP-ERK2 were serum starved followed by EGF stimulation for the indicated time points. The lysates were then subjected to Western blot analysis as in FIG. 4A. […] SPS phosphorylation was detected using the anti pSPS Abs, and this was compared to the amount of genral ERKs detected by αgERK. […] SPS-phosphorylation was detected using αpSPS and αgERK Abs. […] The phosphorylation (^32P-ERK2) of ERK and its mutants was detected by autoradiography. […]
FIG. 9B is an autoradiograph illustrating that stimulation elevates pSPS phosphorylation of 2GFP-SPS construct. […] The total amount of immunoprecipitated 2GFP-SPS was detected with αGFP Ab. […]

[2] = test system: CHO cells; assay: Microscopy of SMAD3 and MH2 constructs (subcellular localization); format: cell-based; conditions: overexpressed in CHO cells, fluorescence microscopy
Text: FIGS. 11A-11D are photomicrographs illustrating that mutation of SPS prevents the nuclear translocation of full length SMAD3. CHO cells overexpressing either Flag-SMAD3 (SMAD3) or its AAA mutant (AAA-SMAD3) were fixed and stained both with anti Flag Ab and DAPI.
FIGS. 12A-12F are photomicrographs illustrating that mutants of the SPS domain modulate the subcellular translocation of the MH2 region of SMAD3. CHO cells overexpressing MH2 domain of SMAD3 (WT-MH2), or the AAA (AAA-MH2) and DPD mutant (MH2-DPD) were fixed and visualized under florescent microscope.
Immunofluorescence Microscopy. Cells were fixed (30 min in 3% paraformaldehyde in PBS or 10 min with ice-cold methanol), followed by 5-min permeabilization with 0.2% Triton X-100 in PBS (23° C.). The fixed cells were sequentially incubated with the appropriate Abs (45 min) followed by rhodamine-conjugated secondary Abs (45 min) and DAPI. Slides were visualized using a fluorescence microscope (Nikon, Japan) at 400× magnifications.
Therefore, it seems likely that the SPS of SMAD3 operated similarly to that of ERK2. To examine whether this SPS of SMAD3 is involved in nuclear translocation WT-Flag-SMAD3 and a Flag-SMAD3 in which the SPS domain was replaced with three Ala residues (AAA-SMAD3) were overexpressed in CHO cells and their localization examined.

B1: WT-Flag-SMAD3: full length FLAG-SMAD3 (protein)
chain: MSSILPFTPPIVKRLLGWKKGEQNGQEEKWCEKAVKSLVKKLKKTGQLDELEKAITTQNVNTKCITIPRSLDGRLQVSHRKGLPHVIYCRLWRWPDLHSHHELRAMELCEFAFNMKKDEVCVNPYHYQRVETPVLPPVLVPRHTEIPAEFPPLDDYSHSIPENTNFPAGIEPQSNIPETPPPGYLSEDGETSDHQMNHSMDAGSPNLSPNPMSPAHNNLDLQPVTYCEPAFWCSISYYELNQRVGETFHASQPSMTVDGFTDPSNSERFCLGLLSNVNRNAAVELTRRHIGRGVRLYYIGGEVFAECLSDSAIFVQSPNCNQRYGWHPATVCKIPPGCNLKIFNNQEFAALLAQSVNQGFEAVYQLTRMCTIRMSFVKGWGAEYRRQTVTSTPCWIELHLNGPLQWLDKVLTQMGSPSIRCSSVS
modifications: left off: small tags and cut ends
[1]
  SPS phosphorylation upon stimulation (anti pSPS Ab recognition): phosphorylated on its SPS domain
[2]
  subcellular localization: nuclear localization
